In publication PMC6420652 (2019):

B1: antizyme-mRuby2 (antizyme with a C-terminal mRuby2 tag) (natural protein)
chain: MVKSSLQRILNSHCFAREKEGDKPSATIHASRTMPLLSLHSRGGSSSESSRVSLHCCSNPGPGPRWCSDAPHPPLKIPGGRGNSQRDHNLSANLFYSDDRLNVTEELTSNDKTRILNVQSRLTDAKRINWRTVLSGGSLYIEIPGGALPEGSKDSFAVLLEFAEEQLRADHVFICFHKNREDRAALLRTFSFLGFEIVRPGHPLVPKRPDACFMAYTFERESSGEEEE

Key:
Assay in all cases: FRET
Clover-AZIN A325N = Clover-AZIN A325N (human, UniProt O14977 1-448, A325N)
[1] = target: B1
[2] = target: antizyme with an N-terminal mRuby2 tag (human, UniProt P54368 1-228)
Chain of antizyme with an N-terminal mRuby2 tag (P54368 whole entry): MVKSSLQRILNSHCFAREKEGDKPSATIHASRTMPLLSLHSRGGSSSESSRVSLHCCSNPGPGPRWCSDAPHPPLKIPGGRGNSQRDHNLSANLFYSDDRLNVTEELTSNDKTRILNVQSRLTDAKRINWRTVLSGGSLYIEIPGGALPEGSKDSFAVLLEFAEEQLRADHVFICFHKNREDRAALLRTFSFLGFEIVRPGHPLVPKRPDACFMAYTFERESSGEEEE

Kd (Clover-AZIN A325N)	Kd [1]	Kd [2]	Binder
35.6 nM	–	–	B1
–	29 nM	89 nM	AZIN with a C-terminal Clover (GFP) tag (natural protein) MKGFIDDANYSVGLLDEGTNLGNVIDNYVYEHTLTGKNAFFVGDLGKIVKKHSQWQNVVAQIKPFYTVKCNSAPAVLEILAALGTGFACSSKNEMALVQELGVPPENIIYISPCKQVSQIKYAAKVGVNILTCDNEIELKKIARNHPNAKVLLHIATEDNIGGEEGNMKFGTTLKNCRHLLECAKELDVQIIGVKFHVSSACKESQVYVHALSDARCVFDMAGEIGFTMNMLDIGGGFTGTEFQLEEVNHVISPLLDIYFPEGSGVKIISEPGSYYVSSAFTLAVNIIAKKVVENDKFPSGVEKTGSDEPAFMYYMNDGVYGSFASKLSEDLNTIPEVHKKYKEDEPLFTSSLWGPSCDELDQIVESCLLPELNVGDWLIFDNMGADSFHEPSAFNDFQRPAIYYMMSFSDWYEMQDAGITSDSMMKNFFFVPSCIQLSQEDSFSAEA
–	–	80 nM	Clover-AZIN (antizyme inhibitor with an N-terminal Clover tag) (natural protein) MKGFIDDANYSVGLLDEGTNLGNVIDNYVYEHTLTGKNAFFVGDLGKIVKKHSQWQNVVAQIKPFYTVKCNSAPAVLEILAALGTGFACSSKNEMALVQELGVPPENIIYISPCKQVSQIKYAAKVGVNILTCDNEIELKKIARNHPNAKVLLHIATEDNIGGEEGNMKFGTTLKNCRHLLECAKELDVQIIGVKFHVSSACKESQVYVHALSDARCVFDMAGEIGFTMNMLDIGGGFTGTEFQLEEVNHVISPLLDIYFPEGSGVKIISEPGSYYVSSAFTLAVNIIAKKVVENDKFPSGVEKTGSDEPAFMYYMNDGVYGSFASKLSEDLNTIPEVHKKYKEDEPLFTSSLWGPSCDELDQIVESCLLPELNVGDWLIFDNMGADSFHEPSAFNDFQRPAIYYMMSFSDWYEMQDAGITSDSMMKNFFFVPSCIQLSQEDSFSAEA
